Experimental findings from patent CN112759647A are described below.

Experiment [1] concerns the target 人PD-L1 on 293T-h-PDL1 cells (HEK293 stably expressing PD-L1) (human) (UniProt Q9NZQ7). As to the kind of experiment: FACS, hybridoma supernatant on 293T-h-PDL1 cells. On the technique in general: Flow cytometry measures light scatter and fluorescence of single cells or particles in a stream.
The target of experiment [2] is 人PD-L1胞外区与人IgG1-FC的融合蛋白 (human) (UniProt Q9NZQ7). As to the kind of experiment: FACS blocking: supernatant premixed with 500 ng PD-L1-hFc; competitor PD-1 on 293T-h-PD1 cells.
The target of experiment [3] is 人PD-L1 on 293T-h-PDL1 cells (HEK293 stably expressing PD-L1) (human) (UniProt Q9NZQ7). The experiment can be described thus: FACS, antibody on 293T-h-PDL1 cells.

B1: 鼠抗体15G10 (antibody, from another filing, V domains shown)
VH: QVQLKQSGPELVKPGASVKTSCKASGYTFTNYVVHWVKQNPGQGLEWIGYVNPNNDGTIFNEKFKDKAILTSDKSSSTAYMELSSLTSEDSAVYYCARSPFAHWGQGTLVTVSA
VL: QIVLTQSPASLTVSLGQRATISCSASESVDFYGTSLMQWFQQKPGQPPKLLVYTASNVDSEVPARFSGSGSGTDFSLNIHPVEEDDIAMYFCHQTRKVPYTFGGGTKLEIK
The molecule B1 displayed an EC50 in experiment [1] of 1.45 µg/mL. The molecule also showed an IC50 in experiment [2] of 4 µg/mL.

B2: 鼠抗体28B1 (antibody, from another filing, V domains shown)
VH: QVQLKQSGAELVKPGASVMLSCTASAFNIDDTYIHWVKQRPEQGLEWIGRIDPANGNTDYDPECQGKATITTDMSSNTAYLQLSSLTSEDTAVYFCARGLRLPGLVYWGRGTLVTVSA
VL: DIQMTQTTSSLSASLGDRVTISCRASQDISNYLNWYQQKPDGTVKLLIYYTSILYSGVPSRFSGSGSGTDYSLTINTLEEEDIATYFCQQGNTLPWTFGGGTKLEIIR
B2 registered an EC50 in experiment [1] of 0.39 µg/mL. Besides, in experiment [2], the 50% inhibitory concentration (IC50) amounted to 2.31 µg/mL.

B3: 鼠抗体22B10 (antibody, from another filing, V domains shown)
VH: QVQLKQSGAELVKPGASVELSCTASGFNIEDTYLHWVNQRPEQGLEWIGRIDPANGNTYYDPKFQGKATITTDTSSNTAYLQLSRLTSEDTAVYYCARGLRLPGFPYWGQGTLVTVSA
VL: DIQMTQTPSSLSASLGDRVTISCRASQDISNYLSWYQQKPDGTVKLLIYYTSILHSGVPSRFSGSGSGTDYSLAISNLDQEDIATYFCQQGNTLPWTFGGGTKLEIKR
In the case of B3, the EC50 in experiment [1] worked out at 0.517 µg/mL. The IC50 in experiment [2] amounted to 4.31 µg/mL.

B4: 鼠抗体8A2 (antibody, from another filing, V domains shown)
VH: QVQLKQSGPGLVAPSQSLSITCTVSGFSLTGYGVNWVRQPPGKGLEWLGKIWGDGITDYNSALKSRLSISKDNSKSQVFLKMNSLQTDDTARYYCARDVMDYWGQGTSVTVSS
VL: QIVLTQSPAIMSASPGEKVTMTCSASSSISYMHWYQQKPGTSPKRWIYDTSKLASGVPARFSGSESGTSYSLTISSMEAEDAATYYCHHRSPYPTFGAGTKLELK
In experiment [1], B4 gave a 50% effective concentration (EC50) of 0.336 µg/mL. Moreover, the half-inhibitory concentration (IC50) in experiment [2] came out at 5.17 µg/mL.

B5: 鼠抗体13C9 (antibody, from another filing, V domains shown)
VH: QVQLKQSGAGLVKPGASVKLSCKASGYIFTEYIIHWVKQRSGQGLEWIGWFYPGSDNIKYNEKFKDKATLTADKSSSTVYMELSRLTSEDSAVYFCARHETGYFFDYWGQGTTLTVSS
VL: DIVITQSPAIMSASPGEKVTMTCSASSSVSKMNWYQQKSGTSPKRWIYDTSKLASGVPSRFSGSGSGTSYSLTISSMEAEDAATYYCQQWSSNPLTFGSGTKLELKR
As for B5, the EC50 in experiment [1] was 0.44 µg/mL; in experiment [3], 0.49 µg/mL. Also, in experiment [2], the half-maximal inhibitory concentration (IC50) worked out at 1.95 µg/mL.

For orientation: EC50 means the concentration that produces a half-maximal response. A higher EC50 goes with a need for much substance. Usually IC50 stands for the point on the concentration scale where inhibition reaches its midpoint. Low values mean inhibition by little substance, high ones a need for much substance.
